Results taken from the nanobody polyreactivity screen of Harvey et al. (2022).

Test: yeast display, Sf9 membrane polyspecificity reagent, FACS + sequencing; frameworks hold sequencing errors
Method in brief: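 Galactose-induced (36–48 hours) yeast carrying a synthetic nanobody display library were exposed to 10% biotinylated, detergent-solubilized Sf9 membrane reagent at 4 °C for 1 hour. FACS followed streptavidin microbead enrichment, using low and high (top ~1%) gates for expression (anti-HA) and reagent binding (streptavidin). Colony PCR, MiSeq 2 × 250 sequencing and CDR-length filtering followed. Labels for polyreactivity reflect the gate of origin.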
In the case of “QVQLVESGGGLVLAGRSLRLICAASGSIFVYNAMGWYRQAPGKERELVAAISWSGGRTYYADSVKGRFTISRDNAKNTVYLQMNSLKPEDTAVYYCAALYTLRGYYYGTEYDYWGQGTQVTVSS”, the “polyreactivity (PSR sort gate)” value is reported as “high polyreactivity”. In the case of “QVQLVESGGGLVPAGGSLLLSCAASGRTIYSYGMGWYRQAPGKERELVASISSSTGSTYYADSVKGRFTISRDNAKNTVYLQMNSLKPEDTAVYYCAKRYSWTRRYDYWGQGTQVTVSS”, the “polyreactivity (PSR sort gate)” value is reported as “high polyreactivity”. With “QVQLVESGGGLVPAGGSLPLSCAASGSTFSGHTMGWYRQAPGQDWELVADINWSSGSTYYADSVKGRFTISRDNAKNNVYLQMHSLKPEDTALLYCAAVEPFSDFDYWGQGTQVTLSS” the “polyreactivity (PSR sort gate)” value was “low polyreactivity”. In the case of “QVQLVESGGGLVPAGGSLRLSCAASGFIFQWYAMGWYRQAPGKERELVAAISSSGGSTYYADSVKGRFTISRDNAKNTVYLQMNSLKPEDTAVYYCAAVWASYPYRGVDYWGQGTQVTVSS”, the “polyreactivity (PSR sort gate)” value is reported as “high polyreactivity”. For “QVQLVESGGGLVPAGGSLRLSCAASGRIFWSNAMGWYRQAPGKERELVAAITWRGGSTYADSVKGRFTISRDNAKNTVYLQMNSLKPEDTAVFYCAASPSGWRYDYWGQGTQVTVSS”, the “polyreactivity (PSR sort gate)” value was “high polyreactivity”. For “QVQLVESGGGLVPAGGSLRLSCAASGRIITINAIGWYRKAPGKERELVAAISNSGGRTYADSVKGRFTISRDNAKNTVYLQMNSLKPEDTAVYYCAKRYRFHFWGQGTQVTVSS”, the “polyreactivity (PSR sort gate)” value was “low polyreactivity”. In the case of “QVQLVESGGGLVPAGGSLRLSCAASGRTFAGNAMGWYRPAPGTERELVAVISRGGSTYYADSVKGRFTISRDNAKNTVYLQMNSLKPEDTAVYYCAARLRTTSVRGRYDYWGQGTQVTVSS”, the “polyreactivity (PSR sort gate)” value is reported as “high polyreactivity”. With “QVQLVESGGGLVPAGGSLRLSCAASGSIFKINAMGWYRQAPGKERELVATITWSTGTTYYADSVKGRFTISRDNAKNTVYLQMNSLKPEDTAVYYCATDGDSTKLDYWGQGTQVTVSS” the “polyreactivity (PSR sort gate)” value was “low polyreactivity”. In the case of “QVQLVESGGGLVPAGGSLRLSCAASGSIFVGYAMGWYRQAPGKERELVADITVGGGSTFYADSVKGRFTISRDNAKNTVYLQMTSLKPEDTAVYYCAKYAGVYEYDYWGQGTQVTVSS”, the “polyreactivity (PSR sort gate)” value is reported as “low polyreactivity”. In the case of “QVQLVESGGGLVPAGGSLRLSCAASGSTFVGNAMGWYRQAPGKERELVAAISSGGSTNYADSVKGRFTISRDNAKNTVYLQMNSLKPEDTAVYYCNAVYFYWLYGFSYFATGITYDYWGQGTQVTVSS”, the “polyreactivity (PSR sort gate)” value is reported as “high polyreactivity”. With “QVQLVESGGGLVPAGGSLRLSCAASGSTFVRYVMGWYRQAPGKERELVAAISRRGGSTYYADSVKGRCTISRDIAKNTVYLQMNSLKPEDTAVYYCADSRGTRTTGYSSYDRFGYWGQGTQVTVSS” the “polyreactivity (PSR sort gate)” value was “high polyreactivity”. In the case of “QVQLVESGGGLVPAGGSLRLSCAASGSTGFNAMGWYRQAPGKERELVAAINYSDGSTYYADSVKGRFTISRDNAKNTVYLQMNSLKPEDTAVYYCNAGSSKDDSYYSYGYWGQGTQVTVSS”, the “polyreactivity (PSR sort gate)” value is reported as “low polyreactivity”. For “QVQLVESGGGLVPAGGSLRLSCPAGGFIFGSNVMGWYRQAPGKEREFVAAITYGGVSTYYADSVKGRFTISRDNAKNTVYLQMNSLKPEDTAVYYCNTDRGKRLGKQASSKRYDYWGQGTQVTVSS”, the “polyreactivity (PSR sort gate)” value was “high polyreactivity”. With “QVQLVESGGGLVQAAGSLRISCAASGLIFGWNAMGWYRQAPGKERELVAAITSGGSTYYADSVKGRFTISRDNAKNTVYLQMNSLKPEDTAVYYCAAVYVLGKTGRVYGKYGYWGQGTQVTVSS” the “polyreactivity (PSR sort gate)” value was “high polyreactivity”. For “QVQLVESGGGLVQAAGSLRISCAASGLIFNYYAMGWYRQAPGKERELVAAISKDGGSTYYADSVKGRFTISRDNAKNTVYLQMNSLKPEDTADFYCAARTFRISRMDYRGQGTQVTVSS”, the “polyreactivity (PSR sort gate)” value was “high polyreactivity”. For “QVQLVESGGGLVQAAGSLRLICAASGSTFEGNVMGWYRPAPGKERELVAAMSVRGGSTYYADSVKGRFTISRDNAKNTVYLQMNSLKQEDTEDYYCAKKYYRPFWEGDYWGQGTQVTVSS”, the “polyreactivity (PSR sort gate)” value was “low polyreactivity”. In the case of “QVQLVESGGGLVQAAGSLRLSCAASGFIFIYNAMGWYRQAPGKERELVAAITGSDGGTFYADSVKGRFTFSRDYAKNTVYLQINSLKPEDTAVYYCHADNGSRQSRDGYESWGQGTQVTVSS”, the “polyreactivity (PSR sort gate)” value is reported as “low polyreactivity”. With “QVQLVESGGGLVQAAGSLRLSCAASGFIFLVYSMGWSRQAPGKARELVAAISASGGRTYYADSVKGRFTISRDNAKNTVYLQMNSLKPEDTAVYYCARLLPTPGKPILDYWGQGTQVTVSS” the “polyreactivity (PSR sort gate)” value was “low polyreactivity”. With “QVQLVESGGGLVQAAGSLRLSCAASGFTFEKYVMGRYRQAPGKEREFVAAITRSGGRTYYADSVKGRFTISRDNAKNTVYLQMNSLKPEYTAVYYCAAAFSRSDTGGGSWGQGTQVTVSS” the “polyreactivity (PSR sort gate)” value was “high polyreactivity”. For “QVQLVESGGGLVQAAGSLRLSCAASGFTFWLYAMGWYRQAPGSEREMVAAIRRGGGTNYADSVKGRFTISRDNAKNTVYLQMNSLKPEDTAVYYCAAAVLSYRHAHAGYYYAKGDYWGQGTQVTVSS”, the “polyreactivity (PSR sort gate)” value was “high polyreactivity”. With “QVQLVESGGGLVQAAGSLRLSCAASGITLYWYAMGWSRQAPGKERELVATISRRGGTTYYADSVKGRFTISRDNAKNTVYLQMNSLKPEDTAVYYCAKAPDTQTSWSRQEGNYWGQGTQVTVSS” the “polyreactivity (PSR sort gate)” value was “low polyreactivity”. With “QVQLVESGGGLVQAAGSLRLSCAASGLTFWKYTMGWNRQAPGKEWELVAAISISGTNTYYADSVKGRFTISRDNAKNTVYLQLNSLKPEDTAVYYCAAVRGYPPTNYYYWGPGTQVTVSS” the “polyreactivity (PSR sort gate)” value was “high polyreactivity”. For “QVQLVESGGGLVQAAGSLRLSCAASGRIFTPYAMGWYRQAPGKERELVAVIRDGSTYYADSVKGRFTISRDNAKNTVYLQMNSLKPEDTAVYYCRYDIWVWWSGAYDYWGLGTQVTVSS”, the “polyreactivity (PSR sort gate)” value was “low polyreactivity”. With “QVQLVESGGGLVQAAGSLRLSCAASGRTFHWYVMGWYRQAPGKESELDAAITRRGGSTYYADSVKGRFTISRDNAKNTVYLQLNSLKPEDTAVYYCAAVGNRRYYFGYDYWGQGTQVTVSS” the “polyreactivity (PSR sort gate)” value was “high polyreactivity”. For “QVQLVESGGGLVQAAGSLRLSCAASGRTSVRYAMGWNRQAHGKERELVAAISWSGGSTYYADSVKGRFTISRDNAKNTVYLQMNSLKPEDTAVYYCNAQHALGYYYWGQGTQVTVSS”, the “polyreactivity (PSR sort gate)” value was “low polyreactivity”. With “QVQLVESGGGLVQAAGSLRLSCAASGTTFNRFFMGWYREAPGTERELVAANGGRTYYADSVKGRFTISRDNAKKSVYFQRNSLKPEDTAVYYCNARSYKHPYYRFDYWGQGTEVTVSS” the “polyreactivity (PSR sort gate)” value was “high polyreactivity”. For “QVQLVESGGGLVQAAGSLRVSCAASGSIFYGYAMGGYRKAPGKERELVAAITTVGSTYADSVKGRFTISRDNAKNTVYLQMNSLKPEDTAVYYCNARDYERTRRYLIVYSRYGYWGHGTQVTVSS”, the “polyreactivity (PSR sort gate)” value was “low polyreactivity”. In the case of “QVQLVESGGGLVQAGASLRLSCAASGFTFGINAMGWYRQAPGKERELVATISTRGGTTHYADSVKGRFTISRDNAKNTVYLQMNRLKPEDTAVYYCAVERGTFRSGFAYEYYYWGQGTQVTVSS”, the “polyreactivity (PSR sort gate)” value is reported as “low polyreactivity”. With “QVQLVESGGGLVQAGASLRLSCAASGRIFARYAMGWYRQAPGKERELVASITRSGGSTYYADSVKGRYTISRDNAKNTVYLQMNSLKPEDTAVYYCAARYGRVRDVIPYDYWGQGTQVTVSS” the “polyreactivity (PSR sort gate)” value was “high polyreactivity”. In the case of “QVQLVESGGGLVQAGASLRLSCAASGRIFPTYAMGWYRQAPGKEMEFVAAISRSGGRTYYADSVKGRFTISRDHAKNTVYLQMNSLKPEDTAVYYCNAEGDPYVDFPSRSTGYDYWGQGTQVTVSS”, the “polyreactivity (PSR sort gate)” value is reported as “high polyreactivity”. With “QVQLVESGGGLVQAGASLRLSCAASGRTFETNAMGWYSQAPGKEREFVASINWSGGSTYYSDSVKGRFTISRDNAKNTVYLQMNSLKPEDTAVYYCAADHSYWDWWSYYYWGQGTQVTVSS” the “polyreactivity (PSR sort gate)” value was “low polyreactivity”. For “QVQLVESGGGLVQAGASLRLSCAASGRTFGGYAMGWYRQAAGKERELVAAISYSGGSTYYADSVKGRFTISRDYAKNTVYLQMNSLKPEDTAVYYCAADGFDAYYWGQGTQVTVSS”, the “polyreactivity (PSR sort gate)” value was “low polyreactivity”. With “QVQLVESGGGLVQAGASLRLSCAASGRTYRWYTMGWYRPAPGKERELVAAITSRGGSTYADSVKGRFTISRDNAKNTVYLQMNSLKPEDTAVYYCNAARTYQYDYWGQGTQVTVSS” the “polyreactivity (PSR sort gate)” value was “high polyreactivity”. For “QVQLVESGGGLVQAGASLRLSCAASGSIFSGYTMGWYRQAPGKERELVAGISYRGGSTYYADSVKGRFTISRDNAKNTVYLQMNSLKPEDTAVYYCAALYYRRGSLNYEYWGQGTQVTVSS”, the “polyreactivity (PSR sort gate)” value was “high polyreactivity”. In the case of “QVQLVESGGGLVQAGASLRLSCAASGSIFSSYARGWYRPAPGKERELVAVITNGGSTYYADSVKGRFTISRDYAKNTVYLQMNSLKPEDTAVYYCNARWTKGRKYGYWGQGTQVTVSS”, the “polyreactivity (PSR sort gate)” value is reported as “low polyreactivity”. For “QVQLVESGGGLVQAGASLRLSCAASGSIFTRNTMGWYRQAPGKERELVARISGGRTNYADSVKGRFTISRDNAKNTVYLQMYSLKPVDTAVYYCAARGLYTPTKRSGDPYYYWGQGSQVTVSS”, the “polyreactivity (PSR sort gate)” value was “high polyreactivity”. In the case of “QVQLVESGGGLVQAGASLRLSCAASGSIFYYDMGWDRQAPGKERELVAAITWSGGSTYYADSVKGRFTISRDNAKNTVYLQMNSLKPEDTAVYYCAAIFGYGSTWWRWGKDDYWGQGTQVTVSS”, the “polyreactivity (PSR sort gate)” value is reported as “high polyreactivity”. In the case of “QVQLVESGGGLVQAGASLRLSCAASGSTFYYYAMGWYRQAPGKERELVAAITYRGGSTYYADSVKGRFTISRDNAKNTDFLQMNSLKPEDPAVYYCAADIVTGFISGPGYVYWGQGTQVTVSS”, the “polyreactivity (PSR sort gate)” value is reported as “high polyreactivity”. For “QVQLVESGGGLVQAGASLRLSCDASGLTFGYYAMGWYRQAPGKERELVAAINRSGNTNYADSVKGRFTISRDNAKNTVYLQMNSLKPEDTAVYYCAKRIWSILSPYKSSYGYDYWGQGTQVTVSS”, the “polyreactivity (PSR sort gate)” value was “low polyreactivity”. For “QVQLVESGGGLVQAGCRLRLSCAASGLIFGYYHMGWYRQAPGKERELVAAITTGDSTYYADSVKGRFTISRDNAKNTVYLQMNSLKPEDTAVYYCAAYPVWYYEYDYWGQGTQVTVSS”, the “polyreactivity (PSR sort gate)” value was “low polyreactivity”. In the case of “QVQLVESGGGLVQAGCSLLLSCDATGNIFRYYFMGWYRQAPGKEREFVAAITTSCGSTYYADSVKGRFTISRDNAKNTVYLQMNSLKQEDTAVYYCAKDYWVPGWAEYDYWGQGTQVTVSS”, the “polyreactivity (PSR sort gate)” value is reported as “low polyreactivity”. In the case of “QVQLVESGGGLVQAGCSLRISCAASGLIFQYYAMGWYRQAPGKERELVAAISGFGVRTYYADSVKGRFTISRDNAKNTVYLQMNSLKPEDTAVYYCNTLRQDIIRGDYWGQGTQVTVSS”, the “polyreactivity (PSR sort gate)” value is reported as “high polyreactivity”. For “QVQLVESGGGLVQAGCSLRISSAASGRIFAVKAMGWYRQAPGKDRELVAAITNVGSTNYADSVKGRFTISRDNAKNTVYLQMNSLKPEDTAVYYCNADLAQEDWKMDYWGQGTQVTVSS”, the “polyreactivity (PSR sort gate)” value was “low polyreactivity”.
